{
  "source": "paper PMC10808355",
  "key": {"[1]": {"molecular_target": "Chaetomium thermophilum 80S ribosome (Ct80S) (C. thermophilum (endogenous in C. thermophilum))", "test": "cryo-EM structure; 400 nM C. thermophilum 80S ribosomes (with random nascent chains) mixed with full-length CtMAP2 (66 µM final), 30 min at RT, then vitrified"}, "[2]": {"molecular_target": "Chaetomium thermophilum 80S ribosome (Ct80S) (C. thermophilum (endogenous in C. thermophilum))", "test": "cryo-EM structure; 400 nM C. thermophilum 80S ribosomes mixed with CtMAP2∆N (66 µM final), 30 min at RT, then vitrified; particles separated by translocation state (rotated, non-rotated)"}, "[3]": {"molecular_target": "Human 80S ribosome, non-translating (Hs80S) (human (endogenous in HeLa)) (UniProt P62750)", "test": "cryo-EM structure; 200 nM non-translating H. sapiens 80S ribosomes mixed with HsMAP2 (59 µM final), 30 min at RT, then vitrified"}},
  "data": [
    {"substance": "Chaetomium thermophilum methionine aminopeptidase 2, full length (CtMAP2) (enzyme)", "values": [
      {"measurement": "percent of purified ribosomes that accommodate MAP2", "setting": "[1]", "value": 100, "unit": "%"}
    ]},
    {"substance": "CtMAP2(∆N1-73), autoproteolysis product of C. thermophilum MAP2 without the N-terminal extension (domain or fragment)", "values": [
      {"measurement": "fold of the percentage in the A-site, against the full-length CtMAP2 dataset", "setting": "[2]", "value": 4, "unit": "fold"},
      {"measurement": "percent of 80S ribosomes with CtMAP2∆N at the PTE", "setting": "[2]", "value": 70, "unit": "%"}
    ]},
    {"substance": "Human methionine aminopeptidase 2 (HsMAP2) (from UniProt P50579 1-478) (enzyme)", "values": [
      {"measurement": "percent of purified ribosomes that accommodate MAP2", "setting": "[3]", "value": 100, "unit": "%"}
    ]}
  ]
}
